Data taken from the supplement of paper PMC6757056.
± gives the standard deviation of the averaged measurements.

B1: library; a variant is named by its letters at N, in order (parent)
chain: GCUGUCACCGGUGUAUUACCCUAGUGGUCGACCGGUCUGAUGAGUCUNNNNNNAGACGAAACAGC

How the values were obtained:
[1] = variants of: B1; assay: normalized RNA/DNA level with ligand (relative to sTRSVctl = 100) (log10 (% of sTRSVctl)); ligand: hypoxanthine (xanthine aptamer); higher = less ribozyme self-cleavage, higher mRNA level; settings: ligand concentration (+) RNA-Seq: 5 mM, HEK293T, reporter: mCherry (pCS4076), ligand present: yes
Outline: (§1)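 For each 6-well well, 4 µg of library plasmid encoding mCherry-linked ribozyme switches, or eGFP-linked ones in some ligand experiments, was transfected into HEK293T. Any ligand was added 1 h before transfection, and RNA was extracted with EDTA 72 h after it, then reverse-transcribed, amplified, barcoded and sequenced. RNA level was obtained by dividing RNA reads by DNA reads, normalizing to a spiked-in non-cleaving sequence or to the top sequences, then scaling and log-transforming. The top set was 25 sequences, scaling was ×100 with log10, and ≥100 DNA reads were required.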

[2] = variants of: B1; assay: normalized RNA/DNA level without ligand (relative to sTRSVctl = 100) (log10 (% of sTRSVctl)); ligand: hypoxanthine (xanthine aptamer); higher = less ribozyme self-cleavage, higher mRNA level; settings: HEK293T, reporter: mCherry (pCS4076), ligand present: no
Outline: as §1

Row | Variant | normalized RNA/DNA level with ligand (log10) [1] | normalized RNA/DNA level without ligand (log10) [2]
1 | CUUAUG | 1.91 ± 0.039 | 1.91 ± 0.018
2 | CUUAUC | 1.98 ± 0.02 | 1.987 ± 0.013
3 | CUUAUU | 1.95 ± 0.047 | 1.872 ± 0.005
4 | AUUAGU | 1.95 ± 0.028 | 1.712 ± 0.0075
5 | GUUCGG | 1.908 ± 0.019 | 1.604 ± 0.0043
6 | GUUCGC | 1.97 ± 0.025 | 1.96 ± 0.048
7 | GUUCGA | 1.95 ± 0.043 | 1.76 ± 0.023
8 | UUUGCG | 1.91 ± 0.11 | 1.778 ± 0.0053
9 | UUUGCA | 1.94 ± 0.039 | 1.89 ± 0.033
10 | UUUGCU | 1.95 ± 0.023 | 1.95 ± 0.022
11 | UUUGCC | 1.92 ± 0.034 | 1.9514 ± 0.00098
12 | GUUCAU | 1.908 ± 0.016 | 1.783 ± 0.012
13 | GUUCAG | 1.82 ± 0.054 | 1.55 ± 0.057
14 | GUUCAC | 1.96 ± 0.05 | 1.85 ± 0.023
15 | AUUCCC | 1.9 ± 0.031 | 1.87 ± 0.03
16 | AUUCCA | 1.92 ± 0.02 | 1.86 ± 0.042
17 | GUUUGA | 1.97 ± 0.0084 | 1.75 ± 0.032
18 | GUUUGU | 1.95 ± 0.03 | 1.885 ± 0.01
19 | GUUUGC | 1.922 ± 0.016 | 1.61 ± 0.062
20 | UUUUGC | 1.94 ± 0.048 | 1.889 ± 0.0056
21 | UUUUGU | 1.94 ± 0.037 | 1.842 ± 0.011
22 | UUUUGG | 1.898 ± 0.0019 | 1.738 ± 0.007
23 | CUUCGU | 2.028 ± 0.012 | 1.9 ± 0.045
24 | CUUCGC | 1.954 ± 0.0084 | 1.88 ± 0.034
25 | AUUCAC | 1.953 ± 0.019 | 1.891 ± 0.0042
26 | AUUCAA | 1.91 ± 0.047 | 1.82 ± 0.038
27 | AUUCAG | 1.87 ± 0.053 | 1.58 ± 0.025

Row | Variant | normalized RNA/DNA level with ligand (log10) [1] | normalized RNA/DNA level without ligand (log10) [2]
28 | AUUGGC | 1.94 ± 0.03 | 1.836 ± 0.0094
29 | AUUUGG | 1.81 ± 0.03 | 1.39 ± 0.12
30 | AUUACU | 1.956 ± 0.0042 | 1.819 ± 0.017
31 | GUUGAA | 1.918 ± 0.016 | 1.744 ± 0.0083
32 | GUUGAC | 1.917 ± 0.015 | 1.72 ± 0.057
33 | AUUAUG | 1.891 ± 0.0046 | 1.48 ± 0.043
34 | AUUAUC | 2.02 ± 0.021 | 1.97 ± 0.02
35 | CUUAGG | 1.94 ± 0.075 | 1.84 ± 0.053
36 | CUUAGA | 1.984 ± 0.0081 | 1.852 ± 0.0069
37 | CUUAGC | 1.944 ± 0.011 | 1.87 ± 0.018
38 | CUUAGU | 1.936 ± 0.016 | 1.906 ± 0.0051
39 | CUUGUA | 1.94 ± 0.062 | 1.83 ± 0.045
40 | CUUGUU | 1.909 ± 0.0024 | 1.9 ± 0.022
41 | CUUGUC | 2 ± 0.037 | 1.98 ± 0.04
42 | CUUGUG | 1.96 ± 0.056 | 1.883 ± 0.015
43 | CUUGGG | 1.866 ± 0.013 | 1.587 ± 0.013
44 | CUUGGU | 1.98 ± 0.051 | 1.95 ± 0.04
45 | CUUGGC | 1.95 ± 0.069 | 1.9 ± 0.089
46 | GUUAGU | 1.9 ± 0.1 | 1.786 ± 0.011
47 | GUUAGC | 1.91 ± 0.023 | 1.683 ± 0.0085
48 | AUUCGC | 1.96 ± 0.04 | 1.89 ± 0.023
49 | AUUCGA | 1.91 ± 0.042 | 1.738 ± 0.015
50 | AUUCGU | 1.93 ± 0.0044 | 1.897 ± 0.018
51 | UUUACU | 1.94 ± 0.024 | 1.876 ± 0.0032
52 | UUUCUA | 1.91 ± 0.02 | 1.87 ± 0.048
53 | UUUCUG | 1.942 ± 0.009 | 1.77 ± 0.026
54 | UUUCUC | 1.99 ± 0.064 | 1.963 ± 0.0086

Row | Variant | normalized RNA/DNA level with ligand (log10) [1] | normalized RNA/DNA level without ligand (log10) [2]
55 | UUUCUU | 1.94 ± 0.036 | 1.95 ± 0.036
56 | CUUUUU | 1.95 ± 0.058 | 1.806 ± 0.012
57 | CUUUUC | 1.95 ± 0.06 | 1.92 ± 0.077
58 | CUUUUG | 1.95 ± 0.042 | 1.89 ± 0.078
59 | AUUUUA | 1.9 ± 0.029 | 1.83 ± 0.037
60 | AUUUUC | 1.97 ± 0.056 | 1.925 ± 0.003
61 | UUUGUU | 1.952 ± 0.018 | 1.87 ± 0.027
62 | UUUGUC | 2.0103 ± 0.0014 | 1.99 ± 0.036
63 | UUUGUA | 1.93 ± 0.024 | 1.87 ± 0.089
64 | UUUGGG | 1.92 ± 0.025 | 1.71 ± 0.035
65 | UUUGGC | 1.99 ± 0.059 | 1.92 ± 0.053
66 | UUUGGU | 1.976 ± 0.0094 | 1.8 ± 0.027
67 | UUUGGA | 1.93 ± 0.027 | 1.67 ± 0.026
68 | UUUCGC | 1.95 ± 0.023 | 1.92 ± 0.047
69 | UUUCGU | 1.96 ± 0.0091 | 1.851 ± 0.0071
70 | UUUCGG | 1.964 ± 0.012 | 1.94 ± 0.072
71 | UUUCGA | 1.953 ± 0.013 | 1.915 ± 0.006
72 | UUUUAA | 1.931 ± 0.0049 | 1.85 ± 0.056
73 | UUUUAC | 1.93 ± 0.031 | 1.83 ± 0.031
74 | UUUUAG | 1.9 ± 0.03 | 1.76 ± 0.055
75 | GUUGUC | 1.943 ± 0.0065 | 1.9 ± 0.052
76 | GUUUUA | 1.93 ± 0.025 | 1.865 ± 0.0019
77 | CUUUCU | 1.93 ± 0.048 | 1.88 ± 0.038
78 | CUUUCC | 1.91 ± 0.05 | 1.96 ± 0.039
79 | CUUUCG | 1.97 ± 0.064 | 1.903 ± 0.014
